Test results taken from PMC9461429.

Target: Human SARS-CoV-2_Wuhan S (SmT1), C-terminally fused to the resistin trimerization domain (SARS-CoV-2 (Wuhan-Hu-1) | not stated)
Assay: SPR

Human ACE2 (aa18-615), His6-tagged monomeric ACE2, sequence (Q9BYF1 18-615): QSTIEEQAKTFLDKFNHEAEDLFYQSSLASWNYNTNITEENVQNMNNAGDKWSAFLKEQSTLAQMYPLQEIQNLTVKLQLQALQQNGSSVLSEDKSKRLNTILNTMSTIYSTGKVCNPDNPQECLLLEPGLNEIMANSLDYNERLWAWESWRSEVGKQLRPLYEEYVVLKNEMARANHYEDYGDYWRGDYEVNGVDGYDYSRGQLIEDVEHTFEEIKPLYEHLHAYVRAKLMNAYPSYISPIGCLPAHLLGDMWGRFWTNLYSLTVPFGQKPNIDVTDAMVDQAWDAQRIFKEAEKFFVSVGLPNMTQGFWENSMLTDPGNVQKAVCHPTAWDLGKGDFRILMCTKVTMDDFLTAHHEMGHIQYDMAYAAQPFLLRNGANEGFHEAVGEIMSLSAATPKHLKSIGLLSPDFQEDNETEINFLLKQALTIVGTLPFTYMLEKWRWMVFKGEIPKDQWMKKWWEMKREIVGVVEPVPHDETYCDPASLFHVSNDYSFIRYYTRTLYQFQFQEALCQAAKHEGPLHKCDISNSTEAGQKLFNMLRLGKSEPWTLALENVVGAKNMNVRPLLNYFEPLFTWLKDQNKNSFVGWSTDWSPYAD

Human ACE2 (aa18-615), His6-tagged monomeric ACE2 (from UniProt Q9BYF1-1 18-615) (receptor)
Kd: 165 nM
